Experimental data from publication PMC11783328.

How the values were obtained:
[1] = biological target: BG505 SOSIP.v4.1 GT1.1 trimer (BG505 SOSIP germline trimer 1.1) (HIV-1 (isolate BG505)) (UniProt Q2N0S6); test: cryo-EM structure
[2] = biological target: BG505 SOSIP.v4.1-GT1.1 (HIV-1 (isolate BG505)) (UniProt Q2N0S6); test: cryo-EM structure

| Binder | stoichiometry N [1] | stoichiometry N (Ab:Env trimer) [2] |
| --- | --- | --- |
| 21N13 Fab (Fab, V domains shown) VH: QVQLQESGPGRVKPSETLSLTCAVSDDSFGSSYFYWSWIRQAPGKGLEWIGYIAYSGGVRYNPSLSSRVTISRNIHERQFYLRLTSMTAADTAVYYCARHCEDDYGYYSAAQSYGLDSWGQGIAVTVSP VL: DIQMTQSPSSLSASVGDRVTITCRTSENVNNCLNWYQQKPGKAPKLLIYRTSTLQRGVPSRFSGTGSGTDYTLTISSLQSEDFGTYYCQHYYGTPLTFGGGTMVDIK | 3 |  |
| 21M20 Fab (Fab, V domains shown) VH: EVQLVESGGGLAKPGGSLRLSCAASGFTFSRSIMHWVRQAPGKGLEWVSTINYAGSTYYADSVRGRFVISRDNSKNTLSLQMNSVRPEDRAVYHCAKDKEGYYSGGYPLWYFDLWGPGTPVTISS VL: DVQMTQSPSSLSASVGDKVSITCRASQGIADALAWYQQKPGKAPKLLIYGASNLESGVPSRFSGSGSGTDFSLTISSLQAEDFAVYYCQQRNSHPPTFGQGTRVEVK |  | 1 |
